Test results published in US20050260634A1.

How the values were obtained:
c-Myc [1] = biological target: c-Myc (UniProt P01106); test: flow cytometry, fixed and permeabilized HCT15 cells, negative control
c-Myc [2] = biological target: c-Myc (UniProt P01106); test: flow cytometry, fixed and permeabilized JEG3 cells, negative control
c-Myc [3] = biological target: c-Myc (UniProt P01106); test: flow cytometry, fixed and permeabilized HCT116 cells, negative control (row shifted one column to the left)

UniProt P01106, sequence (P01106 whole entry): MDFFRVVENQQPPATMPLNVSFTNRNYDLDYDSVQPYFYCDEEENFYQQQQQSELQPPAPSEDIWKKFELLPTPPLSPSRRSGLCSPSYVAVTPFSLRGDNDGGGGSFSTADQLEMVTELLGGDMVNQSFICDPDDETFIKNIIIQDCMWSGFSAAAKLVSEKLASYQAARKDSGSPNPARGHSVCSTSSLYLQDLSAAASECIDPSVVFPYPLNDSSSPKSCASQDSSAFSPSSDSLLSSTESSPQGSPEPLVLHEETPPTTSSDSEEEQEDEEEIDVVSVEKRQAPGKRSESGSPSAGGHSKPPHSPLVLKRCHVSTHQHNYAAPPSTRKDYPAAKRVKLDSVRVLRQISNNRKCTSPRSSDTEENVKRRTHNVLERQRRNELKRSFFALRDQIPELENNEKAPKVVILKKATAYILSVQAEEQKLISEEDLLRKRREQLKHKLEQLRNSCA

non-immunized rabbit immunoglobulins (antibody)
percentage of positive cells above the flow cytometry threshold (c-Myc [1]): 1.6% | percentage of positive cells above the flow cytometry threshold (c-Myc [2]): 1.1% | percentage of positive cells above the flow cytometry threshold (c-Myc [3]): 1.5%
